According to patent US20260035456A1 (SHANGHAI JEYOU PHARMACEUTICAL, published 2026):

T1: biotin-labeled human ADM (human, not fully specified; biotin label (named human ADM-C-biotin in Example 1.4; position of the biotin not stated for the other lots))
T1 construct: Synthetic peptide; also called human ADM-C-biotin; hADM-Biotin
T1 peptide: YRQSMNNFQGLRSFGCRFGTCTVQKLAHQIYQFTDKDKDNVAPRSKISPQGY

T2: biotin-labeled mouse ADM (mouse, not fully specified; biotin label (named mouse ADM-C-biotin in Example 1.4; position of the biotin not stated for the other lots))
T2 construct: Synthetic peptide; also called mouse ADM-C-biotin; mADM-Biotin
T2 peptide: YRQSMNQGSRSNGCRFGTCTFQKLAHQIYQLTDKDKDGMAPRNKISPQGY


Experiments:
biotin-labeled human ADM = molecular target: T1, biotin-labeled human ADM; experiment: BLI (Octet RED96e), as in Example 3
Method: (§1) The affinity of antibodies 2004hz00, 2004hz97, and 2004hz99 for biotin-labeled human and mouse ADM (human ADM Cat. No. 894757, mouse ADM Cat. No. 894758, synthesized by GLBiochem) was determined by adopting Octet RED96e (Fortebio). The antigens and the antibodies were all diluted with 1× PBST (1× PBS: Sangon, B548117-0500; 0.02% Tween 20: sigma, P1379), the concentration of the antibody used was 100 nM, and the concentration of the antigen used was 2 μg/mL. The candidate antibody sample was added to a 96-well plate (Greiner bio-one, 655209) at 200 μL/well, the software parameters were set, the temperature was 30° C., and the standard kinetic signal was collected at a frequency of 5.0 Hz; and an SA sensor (Fortebio, Cat. No. 18-5020) was pre-wetted with 1× PBST for 10 min and then tested on a machine.
(§2) The equilibrium dissociation constants (KD) of the antibodies were calculated by measuring the association rates (Kon) and the dissociation rates (Koff) of the antigen-antibody in a 1:1 binding manner by adopting the Data Analysis 12.0 software from Fortebio.
(§3) Similar to Example 3, the affinity of the affinity-matured antibodies Ab2004.Am31 -Ab2004.Am40 and the parent antibody Ab2004.Am01 for human and mouse ADM was further determined, respectively, and the results are shown in Table 10. It can be seen from Table 10 […].

biotin-labeled mouse ADM = molecular target: T2, biotin-labeled mouse ADM; experiment: BLI (Octet RED96e), as in Example 3
Method: as §1, §2, §3

Binder | Kd (biotin-labeled human ADM) | Response value (biotin-labeled human ADM) | koff (biotin-labeled human ADM) | kon (biotin-labeled human ADM) | Kd (biotin-labeled mouse ADM) | Response value (biotin-labeled mouse ADM) | koff (biotin-labeled mouse ADM) | kon (biotin-labeled mouse ADM)
Ab2004.Am36 (IgG1 antibody) (antibody, V domains shown, Expressed in CHO cells, human IgG1/kappa) VH: QVQLVQSGAEVKKPGASVKVSCKASGYTFTQYGIAWVRQAPGQGLEWMGWISAYQGNTNYAQKLQGRVTMTRDTSTSTAYMELRSLRSDDTAVYYCAREGRWGGSFNIWGQGTMVTVSS VL: DIQMTQSPSSLSASVGDRVTITCRASQGISSYLAWYQQKPGKAPKLLIYDASNVDTGVPSRFSGSGSGTDFTFTISSLQPEDIATYYCQQYDNLPLTFGGGTKVEIKR | 0.291 nM | 2.7 | 0.000108 s⁻¹ | 372000 M⁻¹ s⁻¹ | 0.518 nM | 2.75 | 0.000221 s⁻¹ | 427000 M⁻¹ s⁻¹
Ab2004.Am33 (IgG1 antibody) (antibody, V domains shown, Expressed in CHO cells, human IgG1/kappa) VH: QVQLVQSGAEVKKPGASVKVSCKASGYTFTSYGISWVRQAPGQGLEWMGWISPYSGNTNYAQKLQGRVTMTRDTSTSTAYMELRSLRSDDTAVYYCAREGRWGGSFNIWGQGTMVTVSS VL: DIQMTQSPSSLSASVGDRVTITCRASEGISEYLAWYQQKPGKAPKLLIYDASNLETGVPSRFSGSGSGTDFTFTISSLQPEDIATYYCQQYDNLPLTFGGGTKVEIKR | 0.316 nM | 2.63 | 0.000214 s⁻¹ | 676000 M⁻¹ s⁻¹ | 0.474 nM | 2.8 | 0.000365 s⁻¹ | 769000 M⁻¹ s⁻¹
Ab2004.Am32 (IgG1 antibody) (antibody, V domains shown, Expressed in CHO cells, human IgG1/kappa) VH: QVQLVQSGAEVKKPGASVKVSCKASGYTFTQYGIAWVRQAPGQGLEWMGWISAYQGNTNYAQKLQGRVTMTRDTSTSTAYMELRSLRSDDTAVYYCAREGRWGGSFNIWGQGTMVTVSS VL: DIQMTQSPSSLSASVGDRVTITCRAAEGIGSYLAWYQQKPGKAPKLLIYDASNLETGVPSRFSGSGSGTDFTFTISSLQPEDIATYYCQQYDNLPLTFGGGTKVEIKR | 0.34 nM | 2.53 | 0.000146 s⁻¹ | 430000 M⁻¹ s⁻¹ | 0.474 nM | 2.76 | 0.000219 s⁻¹ | 461000 M⁻¹ s⁻¹

The next lines start with the values.

Kd (biotin-labeled human ADM) | Response value (biotin-labeled human ADM) | koff (biotin-labeled human ADM) | kon (biotin-labeled human ADM) | Kd (biotin-labeled mouse ADM) | Response value (biotin-labeled mouse ADM) | koff (biotin-labeled mouse ADM) | kon (biotin-labeled mouse ADM) | Binder
0.288 nM | 2.64 | 0.000141 s⁻¹ | 491000 M⁻¹ s⁻¹ | 0.412 nM | 2.81 | 0.000221 s⁻¹ | 537000 M⁻¹ s⁻¹ | Ab2004.Am31 (IgG1 antibody) (antibody, V domains shown, Expressed in CHO cells, human IgG1/kappa) VH: QVQLVQSGAEVKKPGASVKVSCKASGYTFTQYGIAWVRQAPGQGLEWMGWISAYQGNTNYAQKLQGRVTMTRDTSTSTAYMELRSLRSDDTAVYYCAREGRWGGSFNIWGQGTMVTVSS VL: DIQMTQSPSSLSASVGDRVTITCRASEGISEYLAWYQQKPGKAPKLLIYDASNLETGVPSRFSGSGSGTDFTFTISSLQPEDIATYYCQQYDNLPLTFGGGTKVEIKR
0.281 nM | 1.96 | 0.000119 s⁻¹ | 423000 M⁻¹ s⁻¹ | 0.452 nM | 2.74 | 0.000206 s⁻¹ | 456000 M⁻¹ s⁻¹ | Ab2004.Am35 (IgG1 antibody) (antibody, V domains shown, Expressed in CHO cells, human IgG1/kappa) VH: QVQLVQSGAEVKKPGASVKVSCKASGYTFTQYGIAWVRQAPGQGLEWMGWISAYQGNTNYAQKLQGRVTMTRDTSTSTAYMELRSLRSDDTAVYYCAREGRWGGSFNIWGQGTMVTVSS VL: DIQMTQSPSSLSASVGDRVTITCRASQGISSYLAWYQQKPGKAPKLLIYDVSILDAGVPSRFSGSGSGTDFTFTISSLQPEDIATYYCQQYDNLPLTFGGGTKVEIKR
0.154 nM | 2.61 | 6.81e-05 s⁻¹ | 444000 M⁻¹ s⁻¹ | 0.451 nM | 2.78 | 0.000222 s⁻¹ | 492000 M⁻¹ s⁻¹ | Ab2004.Am34 (IgG1 antibody) (antibody, V domains shown, Expressed in CHO cells, human IgG1/kappa) VH: QVQLVQSGAEVKKPGASVKVSCKASGYTFTHYGIAWVRQAPGQGLEWMGWISAYQGNTNYAQKLQGRVTMTRDTSTSTAYMELRSLRSDDTAVYYCAREGRWGGSFNIWGQGTMVTVSS VL: DIQMTQSPSSLSASVGDRVTITCRASQGISSYLAWYQQKPGKAPKLLIYDVSILDAGVPSRFSGSGSGTDFTFTISSLQPEDIATYYCQQYDNLPLTFGGGTKVEIKR
